Biological target: T1, GST-IFT54 (mouse, UniProt Q149C2 1-625)
T1 sequence (looked up): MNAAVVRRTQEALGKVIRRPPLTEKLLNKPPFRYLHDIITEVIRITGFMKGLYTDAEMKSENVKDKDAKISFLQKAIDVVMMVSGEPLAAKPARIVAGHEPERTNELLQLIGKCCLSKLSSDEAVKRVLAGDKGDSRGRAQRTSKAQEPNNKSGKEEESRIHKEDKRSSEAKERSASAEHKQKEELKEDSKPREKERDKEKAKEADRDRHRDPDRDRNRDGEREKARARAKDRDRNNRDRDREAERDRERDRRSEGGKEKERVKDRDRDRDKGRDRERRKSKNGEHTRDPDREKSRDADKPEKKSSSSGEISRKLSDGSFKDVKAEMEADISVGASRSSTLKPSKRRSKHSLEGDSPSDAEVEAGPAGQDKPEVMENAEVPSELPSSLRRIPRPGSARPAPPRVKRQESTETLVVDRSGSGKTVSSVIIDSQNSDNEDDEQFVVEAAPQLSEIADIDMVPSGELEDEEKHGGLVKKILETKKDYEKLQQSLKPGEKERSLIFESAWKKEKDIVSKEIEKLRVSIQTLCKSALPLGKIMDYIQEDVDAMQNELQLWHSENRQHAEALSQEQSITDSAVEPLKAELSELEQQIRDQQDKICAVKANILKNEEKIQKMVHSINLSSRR
Test: pull-down

- binding result: binds
B1: purified, untagged IFT20 (natural protein, mouse, UniProt Q61025-1 1-132, looked up)
chain: MAKDILGEAGLHFDELNKLRVLDPEVTQQTVELKEECKDFVDKIGQFQKIVGGLIELVDQLAKEAENEKMKAIGARNLLKSIAKQREAQQQQLQALIAEKKTQLERYRVEYEALCKVEAEQNEFIDQFIFQK

From paper PMC3069017 (Molecular Biology of the Cell, 2011)
